The target in the assay is recombinant human mannose-6-phosphate receptor (M6PR) (human, UniProt P11717 41-2491). The assay can be described thus: SPR; Biacore T200, single cycle kinetics mode; IDS enzymes co-expressed with HsFGE on recombinant human M6P receptor; who was immobilised is not given in the source. Particulars: both partners purified. (SPR reads the build-up and loss of mass on a sensor chip optically.)

One may read the Kd as the equilibrium constant for the complex coming apart.

Positions count from the first letter of the chain named.

B1: IDS-A3, reconstructed ancestral iduronate-2-sulfatase (last common ancestor of primates and rodents), co-expressed with HsFGE (enzyme)
chain: SETQANSTTDALNVLLIIVDDLRPSLGCYGDKLVRSPNIDQLASHSLLFQNAFAQQAVCAPSRVSFLTGRRPDTTRLYDFNSYWRVHAGNFSTIPQYFKENGYVTMSVGKVFHPGISSNHSDDSPYSWSFPPYHPSSEKYENTKTCRGPDGELHANLLCPVDVADVPEGTLPDKQSTEQAIRLLEKMKTSASPFFLAVGYHKPHIPFRYPKEFQKLYPLENITLAPDPQVPDGLPPVAYNPWMDIRQREDVQALNISVPYGPIPVDFQRKIRQSYFASVSYLDTQVGHLLSALDDLQLANSTIVAFTSDHGWALGEHGEWAKYSNFDVTTRVPLMFYVPGRTAPLPEAGEKLFPYLDPFDSASELMEPGRQTMDLVELVSLFPTLAGLAGLQVPPRCPVPSFHVELCREGQNLLKHFRFHDLEEDPHLHGNPRELIAYSQYPRPADSPQWNSDKPSLKDIKIMGYSIRTIDYRYTVWVGFNPDEFLANFSDIHAGELYFVDSDPLQDHNMYNDSQGGDLPQSLMP
modifications: cysteine 84 post-translationally modified to formylglycine (fGly); N-linked glycans
Turning to B1, the Kd came to 26 nM.

B2: IDS-A3_T354A, variant of ancestral IDS-A3 with the reversed mutation at position 354, co-expressed with HsFGE (enzyme)
chain: B1 chain with T329A
modifications: cysteine 84 post-translationally modified to formylglycine (fGly); N-linked glycans
For the molecule B2, the Kd is 46 nM.

B3: human iduronate-2-sulfatase (hIDS), co-expressed with human formylglycine-generating enzyme (HsFGE) (enzyme)
chain: SETQANSTTDALNVLLIIVDDLRPSLGCYGDKLVRSPNIDQLASHSLLFQNAFAQQAVCAPSRVSFLTGRRPDTTRLYDFNSYWRVHAGNFSTIPQYFKENGYVTMSVGKVFHPGISSNHTDDSPYSWSFPPYHPSSEKYENTKTCRGPDGELHANLLCPVDVLDVPEGTLPDKQSTEQAIQLLEKMKTSASPFFLAVGYHKPHIPFRYPKEFQKLYPLENITLAPDPEVPDGLPPVAYNPWMDIRQREDVQALNISVPYGPIPVDFQRKIRQSYFASVSYLDTQVGRLLSALDDLQLANSTIIAFTSDHGWALGEHGEWAKYSNFDVATHVPLIFYVPGRTASLPEAGEKLFPYLDPFDSASQLMEPGRQSMDLVELVSLFPTLAGLAGLQVPPRCPVPSFHVELCREGKNLLKHFRFRDLEEDPYLPGNPRELIAYSQYPRPSDIPQWNSDKPSLKDIKIMGYSIRTIDYRYTVWVGFNPDEFLANFSDIHAGELYFVDSDPLQDHNMYNDSQGGDLFQLLMP
modifications: cysteine 84 post-translationally modified to formylglycine (fGly); N-linked glycans
notes: iduronate-2-sulfatase (IDS), human; 550-residue protein; also called human IDS; hIDS + HsFGE
As for B3, the Kd is 32 nM.

Values taken from PMC7907806, “Ancestral lysosomal enzymes with increased activity harbor therapeutic potential for treatment of Hunter syndrome” (iScience, 2021).
